Results reported in patent publication CN117616043A (BIOGIC DESIGN LTD, dated 2024).

Legend:
重组人IL-13 (rh-IL-13) = 重组人IL-13 (rh-IL-13) (human, UniProt P35225 35-146); test: cell-based or functional assay
hTSLP-His = hTSLP-His (human, UniProt Q969D9 29-159, limits assumed); test: cell-based or functional assay
人TSLP (hTSLP) = target: T1, 人TSLP (hTSLP) (human, UniProt Q969D9 29-159); test: SPR and ELISA, conclusion of Example 3
T1 construct: also called rhTSLP

Chain of 重组人IL-13 (rh-IL-13) (P35225 35-146 limits assumed): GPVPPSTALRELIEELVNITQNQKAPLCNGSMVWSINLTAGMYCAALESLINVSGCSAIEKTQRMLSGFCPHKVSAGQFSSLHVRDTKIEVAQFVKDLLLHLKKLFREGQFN

| IC50 (IL-13信号传导级联抑制, HEK-Blue IL-4/IL-13, SEAP) (重组人IL-13 (rh-IL-13)) | IC50 (MUTZ-5细胞pSTAT5抑制) (hTSLP-His) | Binder | other results |
| --- | --- | --- | --- |
| 1.3 nM | – | BDG33.023 (antibody, V domains shown) VH: QMQLVESGGGVVQPGRSLRLSCAASGFAFRTYGMHWVRQAPGKGLEWVAVIWYDGSNTHYADSVKGRFTITRDNSKNTLNLQMNSLRAEDTAVYYCARAPQWYLSAEAFDLWGQGTMVTVSS VL: SYVLTQPPSVSVAPGQTARITCGGNLIGSKLVHWYQQKPGQAPVLVVYDDSDRPSRIPERFSGSNSGNTATLTISRVEAGDEADYYCQVWDHSSDHVVFGGGTKLTVL | IC50 (MUTZ5细胞中TSLP依赖性pSTAT5活化的抑制) (hTSLP-His): 13 pM |
| – | ~13 pM | BDG38.079 (antibody, V domains shown) VH: QMQLVESGGGVVQPGRSLRLSCAASGFAFRTYGMHWVRQAPGKGLEWVAVIWYDGSNTHYADSVKGRFTITRDNSKNTLNLQMNSLRAEDTAVYYCVRAPQWYLTAEAFDLWGQGTMVTVSS VL: SYVLTQPPSVSVAPGETATITCGGNMIGGYLVHWYQQKPGQAPLLVIYDDVDRPDRIPERFSGSNSGNTATLTISRVEAGDEADYYCQVWDHDSNTMVFGGGTKLTVL | – |
| – | ~35 pM | BDG38.074 (antibody, V domains shown) VH: QMQLVESGGGVVQPGRSLRLSCAASGFAFRTYGMHWVRQAPGKGLEWVAVIWDDGSNTHYADSVKGRFTITRDNSKNTLNLQMNSLRAEDTAVYYCVRAPQWYLTAEAFDLWGQGTMVTVSS VL: SYVLTQPPSVSVAPGQTATITCGGNMIGAYLVHWYQQKPGQAPLLVVYDDVDRPNRIPERFSGSNSGNTATLTISRVEAGDEADYYCQVWDHNTDKMVFGGGTKLTVL | – |
| – | – | BDG33.003 (antibody, V domains shown, also called BGD33.003; 克隆C2) VH: QMQLVESGGGVVQPGRSLRLSCAASGFTFRTYGMHWVRQAPGKGLEWVAVIWYDGSNKHYADSVKGRFTITRDNSKNTLNLQMNSLRAEDTAVYYCARAPQWELTAEAFDIWGQGTMVTVSS VL: SYVLTQPPSVSVAPGQTARITCGGNLIGSKLVHWYQQKPGQAPVLVVYDDSDRPSLIPERFSGSNSGNTATLTISRVEAGDEADYYCQVWDSSSDGVVFGGGTKLTVL | binding result (人TSLP (hTSLP)): binds |
| 25 nM | – | BDG33.025 (antibody, V domains shown) VH: QMQLVESGGGVVQPGRSLRLSCAASGFTFRTYGMHWVRQAPGKGLEWVADIWYDGSNKHYADSVKGRFTITRDNSKNTLNLQMNSLRAEDTAVYYCARAPQWYLVAEPFDLWGQGTMVTVSS VL: SYVLTQPPSVSVAPGQTARITCGGNLIGSKLVHWYQQKPGQAPVLVVYDDSDRPSLIPERFSGSNSGNTATLTISRVEAGDEADYYCQVWDSSSDGVVFGGGTKLTVL | – |
